How the values were obtained:
[1] = molecular target: Neuronal precursor cell expressed developmentally downregulated 4-2 (NEDD4-2) (mouse (endogenous in hippocampus)) (UniProt Q8CFI0); experiment: co-IP; mouse hippocampal tissue lysed in RIPA buffer with protease and phosphatase inhibitors; equal protein incubated with NEDD4-2, ubiquitin or GluA1 antibody and protein G sepharose at 4 °C overnight; western blot; WT, PLPP/CIN^-/- and PLPP/CIN^Tg mice, saline or KA (25 mg/kg, 2 h), control or NEDD4-2 siRNA
[2] = molecular target: T1, Neuronal precursor cell expressed developmentally downregulated 4-2 (NEDD4-2) (mouse (endogenous in hippocampus), UniProt Q8CFI0 1-1004); experiment: as above; conditions: partners not purified
T1 construct: NEDD4-2 E3 ubiquitin ligase, endogenous in mouse hippocampus; S222 and S328 in murine NEDD4-2; source: endogenous, mouse hippocampal tissue lysate (RIPA buffer)
T1 sequence (looked up): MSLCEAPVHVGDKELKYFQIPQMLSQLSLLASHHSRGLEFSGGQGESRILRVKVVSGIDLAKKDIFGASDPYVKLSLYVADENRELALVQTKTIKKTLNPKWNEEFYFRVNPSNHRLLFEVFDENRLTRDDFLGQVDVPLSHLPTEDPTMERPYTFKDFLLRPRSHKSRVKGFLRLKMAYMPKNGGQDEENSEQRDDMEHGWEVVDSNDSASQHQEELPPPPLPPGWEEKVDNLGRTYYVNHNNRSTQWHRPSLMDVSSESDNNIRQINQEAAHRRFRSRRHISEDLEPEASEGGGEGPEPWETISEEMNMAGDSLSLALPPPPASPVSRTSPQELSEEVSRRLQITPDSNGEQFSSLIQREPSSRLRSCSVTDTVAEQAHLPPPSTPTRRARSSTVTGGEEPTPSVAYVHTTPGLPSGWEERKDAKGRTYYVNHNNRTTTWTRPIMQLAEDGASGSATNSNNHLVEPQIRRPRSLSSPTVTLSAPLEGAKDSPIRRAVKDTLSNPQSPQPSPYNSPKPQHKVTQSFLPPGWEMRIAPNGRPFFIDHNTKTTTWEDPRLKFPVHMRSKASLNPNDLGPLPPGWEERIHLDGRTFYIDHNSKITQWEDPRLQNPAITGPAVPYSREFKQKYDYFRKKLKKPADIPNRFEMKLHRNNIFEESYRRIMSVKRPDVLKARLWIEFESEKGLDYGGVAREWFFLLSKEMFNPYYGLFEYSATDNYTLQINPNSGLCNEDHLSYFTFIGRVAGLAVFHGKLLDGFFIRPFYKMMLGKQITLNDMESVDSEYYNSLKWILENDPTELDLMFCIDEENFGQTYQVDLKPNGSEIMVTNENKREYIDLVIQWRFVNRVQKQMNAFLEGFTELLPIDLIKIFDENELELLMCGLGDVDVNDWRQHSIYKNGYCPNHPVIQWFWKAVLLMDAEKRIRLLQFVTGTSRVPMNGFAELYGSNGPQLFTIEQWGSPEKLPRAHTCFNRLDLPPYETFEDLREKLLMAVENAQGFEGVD

[3] = molecular target: T2, full-length recombinant human NEDD4-2, phosphorylated by SGK1 (human, UniProt Q96PU5 1-975, phosphorylated by incubation with 200 U/μl SGK1 and 100 μM ATP (S342 and S448 phosphorylation followed by western blot)); experiment: co-IP; in vitro with recombinant proteins: NEDD4-2 (10 ng/μl) phosphorylated with 200 U/μl SGK1 and 100 μM ATP in kinase assay buffer I at 30 °C for 1 h, then PLPP/CIN (10 ng/μl) added, 30 °C for 1 h; coprecipitation and western blot; conditions: both partners purified
T2 construct: human NEDD4-2, full-length recombinant protein (Abcam); SGK1 and ATP were still in the sample when PLPP/CIN was added; source: bought: Abcam; phosphorylated in vitro with SGK1 (SignalChem) and ATP
T2 sequence (looked up): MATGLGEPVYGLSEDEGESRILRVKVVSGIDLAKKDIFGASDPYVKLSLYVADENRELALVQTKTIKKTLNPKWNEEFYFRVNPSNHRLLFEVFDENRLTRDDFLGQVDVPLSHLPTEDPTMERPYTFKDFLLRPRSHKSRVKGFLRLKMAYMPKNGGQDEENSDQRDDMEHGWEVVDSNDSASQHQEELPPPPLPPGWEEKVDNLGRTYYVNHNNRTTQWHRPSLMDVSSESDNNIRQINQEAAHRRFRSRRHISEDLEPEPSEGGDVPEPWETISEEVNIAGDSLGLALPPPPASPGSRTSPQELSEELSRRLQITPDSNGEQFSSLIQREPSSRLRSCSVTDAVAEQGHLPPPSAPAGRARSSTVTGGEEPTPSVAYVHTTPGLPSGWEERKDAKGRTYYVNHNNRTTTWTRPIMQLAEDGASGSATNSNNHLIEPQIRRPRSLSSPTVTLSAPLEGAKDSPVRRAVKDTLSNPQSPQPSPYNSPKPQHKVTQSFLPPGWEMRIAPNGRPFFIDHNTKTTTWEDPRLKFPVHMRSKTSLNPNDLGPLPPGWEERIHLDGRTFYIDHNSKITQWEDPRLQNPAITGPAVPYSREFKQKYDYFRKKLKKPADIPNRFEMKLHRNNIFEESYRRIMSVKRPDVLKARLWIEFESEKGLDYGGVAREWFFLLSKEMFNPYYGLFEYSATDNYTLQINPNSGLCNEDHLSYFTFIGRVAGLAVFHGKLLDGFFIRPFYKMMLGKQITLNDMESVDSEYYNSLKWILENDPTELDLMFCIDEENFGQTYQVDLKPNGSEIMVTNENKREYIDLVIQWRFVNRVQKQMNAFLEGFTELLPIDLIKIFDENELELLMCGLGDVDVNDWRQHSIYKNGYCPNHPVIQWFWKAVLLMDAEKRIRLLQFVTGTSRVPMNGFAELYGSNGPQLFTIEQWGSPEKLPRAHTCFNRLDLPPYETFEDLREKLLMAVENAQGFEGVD

PLPP/CIN in PLPP/CIN transgenic (PLPP/CIN^Tg) mice (from UniProt P60487 1-292)
fold of the binding in WT mice [1]: 1.4 fold

B1: Pyridoxal-5'-phosphate phosphatase/chronophin (PLPP/CIN) (enzyme, mouse (endogenous in hippocampus), UniProt P60487 1-292, looked up)
chain: MARCERLRGAALRDVLGQAQGVLFDCDGVLWNGERIVPGAPELLQRLARAGKNTLFVSNNSRRARPELALRFARLGFAGLRAEQLFSSALCAARLLRQRLSGPPDASGAVFVLGGEGLRAELRAAGLRLAGDPGEDPRVRAVLVGYDEQFSFSRLTEACAHLRDPDCLLVATDRDPWHPLSDGSRTPGTGSLAAAVETASGRQALVVGKPSPYMFQCITEDFSVDPARTLMVGDRLETDILFGHRCGMTTVLTLTGVSSLEEAQAYLTAGQRDLVPHYYVESIADLMEGLED
notes: Pyridoxal-5'-phosphate phosphatase/chronophin, endogenous in the hippocampus of WT mice; source: endogenous, mouse hippocampal tissue lysate (RIPA buffer)
fold of control level (2 h after KA, WT mice) [2]: ~1.4 fold

B2: recombinant human PLPP/CIN protein (enzyme, UniProt Q96GD0 1-296, looked up)
chain: MARCERLRGAALRDVLGRAQGVLFDCDGVLWNGERAVPGAPELLERLARAGKAALFVSNNSRRARPELALRFARLGFGGLRAEQLFSSALCAARLLRQRLPGPPDAPGAVFVLGGEGLRAELRAAGLRLAGDPSAGDGAAPRVRAVLVGYDEHFSFAKLREACAHLRDPECLLVATDRDPWHPLSDGSRTPGTGSLAAAVETASGRQALVVGKPSPYMFECITENFSIDPARTLMVGDRLETDILFGHRCGMTTVLTLTGVSRLEEAQAYLAAGQHDLVPHYYVESIADLTEGLED
notes: human pyridoxal-5'-phosphate phosphatase/chronophin, recombinant protein (Abcam); The sentence reads 'full-length recombinant human NEDD4-2 (Abcam, UK) and human PLPP/CIN proteins'; whether 'full-length' also covers PLPP/CIN is not clear; source: bought: Abcam
binding result [3]: binds
